To fix the notation:
B1: B7-H4 antibody 15489 (antibody, human IgG1, kappa, V domains shown)
VH: QVQLQESGPGLVKPSETLSLTCTVSGGSISSYYWSWIRQPPGKGLEWIGYIYSSGSTNYNPSLKSRVTISVDTSKNQFSLKLSSVTAADTAVYYCARGSGQYAAPDYGMDVWGQGTTVTVSS
VL: DIQMTQSPSTLSASVGDRVTITCRASQSISSWLAWYQQKPGKAPKLLIYKASSLESGVPSRFSGSGSGTEFTLTISSLQPDDFATYYCQQDNSFPFTFGGGTKVEIKR
notes: human IgG1/kappa
B2: B7-H4 antibody 15483 (antibody, human IgG1, kappa, V domains shown)
VH: QVQLQESGPGLVKPSQTLSLTCTVSGGSISSGGYYWSWIRQHPGKGLEWIGNIYYSGSTYYNPSLKSRVTISVDTSKNQFSLKLSSVTAADTAVYYCARGLSTIDEAFDPWGQGTLVTVSS
VL: not shown
notes: human IgG1/kappa
B3: B7-H4 antibody 20516 (antibody, human IgG1, kappa, V domains shown)
VH: B1 VH with S30I, S35G, N58S, Q101L, M109L
VL: B1 VL
notes: human IgG1/kappa
B4: B7-H4 antibody 20513 (antibody, human IgG1, kappa, V domains shown)
VH: B2 VH with V2L, Q16E, S31D, G33S, K66R, I71M
VL: not shown
notes: human IgG1/kappa
B5: B7-H4 antibody 20506 (antibody, V domains shown)
VH: QLQLQESGPGLVKPSETLSLTCTASGGSISHGGYYWSWIRQHPGKGLEWIGNIYYSGSTYYNPSLKSRVTMSVDTSKNQFSLKLSSVTAADTAVYYCARESSTISADFDLWGRGTLVTVSS
VL: DIQMTQSPSSVSASVGDRVTITCRASQGISRWLAWYQQKPGKAPKLLIYAASSLQSGVPSRFSGSGSGTDFTLTISSLQPEDFATYYCQQAHTFPYTFGGGTKVEIKR
notes: human IgG1/kappa
B6: B7-H4 antibody 20502 (antibody, V domains shown)
VH: QLQLQESGPGLVKPSETLSLTCTVSGGSIKSGSYYWGWIRQPPGKGLEWIGNIYYSGSTYYNPSLRSRVTISVDTSKNQFSLKLSSVTAADTAVYYCAREGSYPNQFDPWGQGTLVTVSS
VL: EIVMTQSPATLSVSPGERATLSCRASQSVSSNLAWYQQKPGQAPRLLIYGASTRATGIPARFSGSGSGTEFTLTISSLQSEDFAVYYCQQYHSFPFTFGGGTKVEIKR
notes: human IgG1/kappa
B7: B7-H4 antibody 22208 (antibody, human IgG1, kappa, V domains shown)
VH: B6 VH with Y34H, R66K, I71M, Q106W
VL: B6 VL with S31T, G50D, T53A, A55V
notes: human IgG1/kappa
B8: B7-H4 antibody 22216 (antibody, human IgG1, kappa, V domains shown)
VH: B2 VH with S31D, G33S, K66R, I71M
VL: B1 VL with Q27K, K50E, E55H, F94Y, F96Y
notes: human IgG1/kappa

Positions count from the first letter of the chain named.

In the first experiment the target is T1, mouse B7-H4 on the cell surface (mouse, UniProt Q7TSP5 25-257).
T1 construct: full-length, on transfected HEK293T cells
T1 sequence: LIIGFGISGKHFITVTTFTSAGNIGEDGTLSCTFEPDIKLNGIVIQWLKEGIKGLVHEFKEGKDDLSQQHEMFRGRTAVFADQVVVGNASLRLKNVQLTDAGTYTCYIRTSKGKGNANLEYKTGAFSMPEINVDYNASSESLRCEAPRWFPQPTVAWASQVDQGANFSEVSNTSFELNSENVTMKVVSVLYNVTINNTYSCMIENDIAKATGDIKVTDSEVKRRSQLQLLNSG
As to the kind of experiment: flow cytometry, transfected 293 cells.
Procedure: (§1) Following incubation, cells were pelleted, washed and incubated with a secondary labeling antibody and samples were acquired on a flow cytometer. Data was analyzed using the FlowJo software and MFI was plotted vs. antibody concentration. The EC50 cell binding potency was calculated using nonlinear regression curve fit (GraphPad Prism).
As to B1, the half-maximal effective concentration (EC50) is 17.5 nM.

In turn, B2 returned an EC50 of 8.82 nM.

Another experiment concerns the target T2, human B7-H4 on the cell surface (human, UniProt Q7Z7D3 25-282).
T2 sequence: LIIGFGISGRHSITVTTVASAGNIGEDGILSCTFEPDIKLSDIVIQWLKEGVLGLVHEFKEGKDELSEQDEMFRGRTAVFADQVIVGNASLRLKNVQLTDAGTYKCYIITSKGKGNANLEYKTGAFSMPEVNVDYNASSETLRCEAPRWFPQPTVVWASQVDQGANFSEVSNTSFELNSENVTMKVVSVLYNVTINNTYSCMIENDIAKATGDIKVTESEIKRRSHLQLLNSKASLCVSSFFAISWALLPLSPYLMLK
Kind of experiment: cell-based or functional assay.
As for B1, the “Donor 1 Max IFNγ” value came to 82.5 pg/mL, the “Donor 2 Max IFNγ” value amounted to 96.6 pg/mL, the “Donor 3 Max IFNγ” value worked out at 1130 pg/mL and the “Donor 4 Max IFNγ” value was 800 pg/mL. Also, the “aAPC Assay EC50 (IFNγ production)” value came to 291 nM.

B2: the “Donor 1 Max IFNγ” value worked out at 93.2 pg/mL, the “Donor 2 Max IFNγ” value stood at 87.8 pg/mL, the “Donor 3 Max IFNγ” value turned out to be 1380 pg/mL and the “Donor 4 Max IFNγ” value is 939 pg/mL. For the same molecule, the “aAPC Assay EC50 (IFNγ production)” value was found to be 729 nM.

Another experiment deals with T2, human B7-H4 on the cell surface. As to the kind of experiment: cell-based or functional assay. The source holds these as a separate data set.
Regarding B3, the “Donor 2 Max IFNγ” value was 441 pg/mL.

For the molecule B4, the “Donor 1 Max IFNγ” value worked out at 659 pg/mL, the “Donor 2 Max IFNγ” value was 240 pg/mL, the “Donor 3 Max IFNγ” value was determined as 91.1 pg/mL and the “Donor 4 Max IFNγ” value turned out to be 1630 pg/mL. The “aAPC Assay EC50 (IFNγ production)” value was determined as 1.16 nM.

In the case of B5, the “Donor 1 Max IFNγ” value came to 981 pg/mL, the “Donor 2 Max IFNγ” value was determined as 259 pg/mL, the “Donor 3 Max IFNγ” value was determined as 86.1 pg/mL and the “Donor 4 Max IFNγ” value came to 2300 pg/mL. Further, the “aAPC Assay EC50 (IFNγ production)” value came to 1.25 nM.

A further experiment addresses T3, recombinant human B7-H4-huIgG1 (human).
T3 construct: also called B7-H4-extracellular domain (ECD)
As to the kind of experiment: BLI, antigen on Protein A tips.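 Further: Anti-B7-H4 antibodies assessed for affinity toward the B7-H4 extracellular domain using biolayer interferometry.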
Procedure: (§2) Binding affinities of anti-B7-H4 antibodies to B7-H4-extracellular domain (ECD) were determined by biolayer interferometry (BLI). […] Anti-B7-H4 antibodies were then evaluated for binding.
Take B1: the Kd is 63.7 nM.

Regarding B3, the Kd amounted to 18 nM, the koff stood at 0.00738 s⁻¹ and the kon turned out to be 410000 M⁻¹ s⁻¹.

B6: the Kd turned out to be 1.2 nM, the koff was 0.00115 s⁻¹ and the kon is 936000 M⁻¹ s⁻¹.

B7: the Kd was 5.67 nM, the koff was 0.00104 s⁻¹ and the kon was found to be 184000 M⁻¹ s⁻¹.

Take B4: the Kd is 3.98 nM, the dissociation rate constant (koff) came out at 0.0018 s⁻¹ and the kon came out at 453000 M⁻¹ s⁻¹.

For B8, the Kd was found to be 1.47 nM, the koff turned out to be 0.000359 s⁻¹ and the kon turned out to be 245000 M⁻¹ s⁻¹.

As to B5, the Kd worked out at 1.69 nM, the koff turned out to be 0.000746 s⁻¹ and the on-rate (kon) was 441000 M⁻¹ s⁻¹.

Another experiment has as its target T4, mouse B7-H4 (recombinant, BLI) (mouse, UniProt Q7TSP5 29-256, limits assumed).
T4 construct: also called murine B7-H4
T4 sequence: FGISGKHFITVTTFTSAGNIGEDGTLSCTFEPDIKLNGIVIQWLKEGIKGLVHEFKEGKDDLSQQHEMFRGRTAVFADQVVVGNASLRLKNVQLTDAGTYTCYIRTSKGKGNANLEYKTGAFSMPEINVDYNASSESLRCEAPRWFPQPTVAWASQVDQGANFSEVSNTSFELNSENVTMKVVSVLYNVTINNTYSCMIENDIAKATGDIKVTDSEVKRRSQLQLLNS
As to the kind of experiment: BLI, antigen on Protein A tips.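 Further: Anti-B7-H4 antibodies assessed for affinity toward the B7-H4 extracellular domain using biolayer interferometry.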 A general note: Biolayer interferometry detects binding as a change in optical thickness at a sensor tip.
Procedure: as §2
For B1, the Kd came to 201 nM.

Consider B3, for which the Kd is 41.4 nM, the koff was determined as 0.0165 s⁻¹ and the kon was determined as 398000 M⁻¹ s⁻¹.

Take B6: the Kd was 3.4 nM, the dissociation rate constant (koff) amounted to 0.00213 s⁻¹ and the on-rate (kon) worked out at 632000 M⁻¹ s⁻¹.

Consider B7, for which the Kd amounted to 16.7 nM, the koff was 0.00167 s⁻¹ and the kon was found to be 99500 M⁻¹ s⁻¹.

On to B4, for which the Kd was found to be 4.57 nM, the koff amounted to 0.00236 s⁻¹ and the kon is 517000 M⁻¹ s⁻¹.

As to B2, the Kd amounted to 263 nM.

In the case of B8, the Kd was 1.47 nM, the koff was found to be 0.000359 s⁻¹ and the kon worked out at 245000 M⁻¹ s⁻¹.

Regarding B5, the Kd came out at 3.53 nM, the koff came to 0.00164 s⁻¹ and the on-rate (kon) stood at 466000 M⁻¹ s⁻¹.

The next experiment addresses T5, cynomolgus monkey B7-H4 (recombinant, BLI) (cynomolgus monkey, UniProt Q7Z7D3 25-259 (human entry)).
T5 construct: also called Cynomolgus B7-H4
T5 sequence: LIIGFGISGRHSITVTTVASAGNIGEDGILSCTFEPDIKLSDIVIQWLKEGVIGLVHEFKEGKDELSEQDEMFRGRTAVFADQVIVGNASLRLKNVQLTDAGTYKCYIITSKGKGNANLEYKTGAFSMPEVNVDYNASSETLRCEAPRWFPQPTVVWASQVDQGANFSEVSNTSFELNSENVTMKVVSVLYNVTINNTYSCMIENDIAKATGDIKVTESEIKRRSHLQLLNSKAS
As to the kind of experiment: BLI, antigen on Protein A tips.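 Further: Anti-B7-H4 antibodies assessed for affinity toward the B7-H4 extracellular domain using biolayer interferometry.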
Procedure: as §2
With B1, the Kd is 72.1 nM.

As for B3, the dissociation constant Kd worked out at 17.6 nM, the koff turned out to be 0.00783 s⁻¹ and the on-rate (kon) is 445000 M⁻¹ s⁻¹.

In the case of B6, the Kd was 1.2 nM, the koff is 0.00112 s⁻¹ and the association rate constant (kon) worked out at 962000 M⁻¹ s⁻¹.

B7: the dissociation constant (Kd) came to 5.44 nM, the koff is 0.00108 s⁻¹ and the kon was 199000 M⁻¹ s⁻¹.

For the molecule B4, the Kd stood at 3.67 nM, the off-rate constant (koff) came to 0.0018 s⁻¹ and the kon amounted to 491000 M⁻¹ s⁻¹.

On to B2, for which the dissociation constant Kd amounted to 108 nM.

With B8, the Kd was found to be 1.47 nM, the koff came to 0.000359 s⁻¹ and the kon stood at 245000 M⁻¹ s⁻¹.

Consider B5, for which the Kd is 1.48 nM, the koff turned out to be 0.000678 s⁻¹ and the kon came to 458000 M⁻¹ s⁻¹.

Another experiment has as its target T2, human B7-H4 on the cell surface. Kind of experiment: flow cytometry, SK-BR-3 cells. A general note: Flow cytometry measures light scatter and fluorescence of single cells or particles in a stream.
Procedure: as §1
With B1, the EC50 was 31.7 nM.

For B2, the response was half-maximal at 14.8 nM (EC50).

A further experiment concerns the target T6, B7-H4 IgV-huIgG1 (human).
T6 construct: also called N-terminal domain of human B7-H4
Kind of experiment: SPR, antibody captured by anti-human Fab, antigen in flow. For orientation: In SPR one partner is held on a chip, and binding of the other changes the refractive index at the surface.
Procedure: Briefly, anti-human Fab antibody was immobilized on a carboxyl-derivatized SPR chip surface, and anti-B7-H4 antibodies were captured on the resulting surface at 5 ug/ml for 30 seconds.
In turn, B1 gave a Kd of 23.7 nM.

B6 showed a Kd of 2.03 nM, a koff of 0.000361 s⁻¹ and a kon of 178000 M⁻¹ s⁻¹.

On to B2, for which binding was characterised by a dissociation constant (Kd) of 18.4 nM.

In general, EC50 refers to the concentration needed to bring the measured effect to its halfway point. The Kd is the equilibrium constant for the complex coming apart. As usually defined, the koff is the rate constant with which the complex falls apart. A word on the kon: it is the rate constant with which the complex forms.

The values above are taken from patent US20240043542A1 (published 2024).
